Experiment [1] addresses bovine brain Arp2/3 complex (bovine) (UniProt P61157). The experiment is described as follows: ITC; Coro7 CA in the syringe, ADP-bound Arp2/3 complex in the 1.44 mL cell; 25 °C; 20 mM HEPES pH 7.5, 100 mM KCl, 1 mM MgCl2, 1 mM EGTA, 1 mM DTT, 0.2 mM ADP. A general note: ITC needs no label: the signal is the heat of the interaction.
For experiment [2] the target is unchanged. The experiment is described as follows: ITC; Coro7 CA in the syringe, ATP-bound Arp2/3 complex in the 1.44 mL cell; 25 °C; 20 mM HEPES pH 7.5, 100 mM KCl, 1 mM MgCl2, 1 mM EGTA, 1 mM DTT, 0.2 mM ATP.

Experimental findings from paper PMC12592476 are described below.

Sequence of human Coro7 CA (C-terminal Central-Acidic region of coronin 7) (P57737 888-925): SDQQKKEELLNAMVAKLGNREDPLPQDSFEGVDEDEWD

In experiment [1], “human Coro7 CA (C-terminal Central-Acidic region of coronin 7) (from UniProt P57737-1 888-925) (domain or fragment)” gave a Kd of 1000 nM and a stoichiometry N of 1. For the same substance, in experiment [2], the Kd came out at 1000 nM and the stoichiometry N is 1.

As usually defined, the Kd is the constant that tells how readily two partners part at equilibrium. A higher Kd goes with weaker binding. For orientation: stoichiometry N means a count of units in the complex or per binding partner.
